Laboratory results as given in patent US9265844B2, “Protease degradable polypeptides and uses thereof” (THE METHODIST HOSPITAL SYSTEM, priority 2010, dated 2016).
Non-standard residues stand in square brackets, D forms with d. Residues, ends and D or L forms follow the SMILES beside them. *: point of attachment. Dnp = O=[N+]([O-])c1ccc(*)c([N+](=O)[O-])c1; Mca = COc1ccc2c(CC(=O)*)cc(=O)oc2c1

What was measured:
Assay type in all cases: biochemical
Cath S = biological target: T1, Cath S (Homo sapiens, UniProt P25774); test: FRET hydrolysis of substrate e by Cath S; conditions: 90 minutes, pH 6.5
T1 construct: purchased Calbiochem, EMD Bioscience (Gibbstown, N.J.)
Method: (§1) The catalytic selectivity of Cath E and Cath D was determined fluorometrically by FRET-based hydrolysis of intramolecularly quenched peptide substrates a-e. Fluorogenic substrates a-e (10 μL, 200 μM) were incubated with 23 pmol of Cath E or Cath D in 50 mM sodium acetate buffer, pH 4, containing 150 mM NaCl, and the total volume was brought to 100 μL, using the same buffer. Cath S and Cath B were pre-activated by incubation with 100 mM sodium acetate buffer solution, pH 6.5, containing 5 mM DTT and 5 mM EDTA for 5 minutes. Cath S and Cath B (23 pmol) were incubated with 10 μL, of 200 μM fluorogenic substrate e at 100 mM sodium acetate buffer solution, pH6.5, containing 5 mM DTT and 5 mM EDTA, and the total volume was brought to 100 μL, using the same buffer. All assays were performed in triplicate in 96 well black walls, clear-bottom plates (Corning, N.Y.). The change in the fluorescence intensity was monitored over time using SpectraMax.M2^e fluorescence spectrophotometer (Molecular Devices; Sunnyvale, Calif.) at excitation wavelength (λex) of 340 nm and emission wavelength (λem) of 405 nm at 37° C. Control experiments were performed simultaneously by replacing the enzyme with assay buffer.

Cath E [1] = biological target: T2, Cath E (Homo sapiens, UniProt P14091); test: FRET hydrolysis of quenched substrates a-e by Cath E; design: purchased Calbiochem, EMD Bioscience (Gibbstown, N.J.); conditions: for time to saturation of fluorescence on activation by Cath E: 23 pmol Cath E
T2 sequence (P14091 54-396): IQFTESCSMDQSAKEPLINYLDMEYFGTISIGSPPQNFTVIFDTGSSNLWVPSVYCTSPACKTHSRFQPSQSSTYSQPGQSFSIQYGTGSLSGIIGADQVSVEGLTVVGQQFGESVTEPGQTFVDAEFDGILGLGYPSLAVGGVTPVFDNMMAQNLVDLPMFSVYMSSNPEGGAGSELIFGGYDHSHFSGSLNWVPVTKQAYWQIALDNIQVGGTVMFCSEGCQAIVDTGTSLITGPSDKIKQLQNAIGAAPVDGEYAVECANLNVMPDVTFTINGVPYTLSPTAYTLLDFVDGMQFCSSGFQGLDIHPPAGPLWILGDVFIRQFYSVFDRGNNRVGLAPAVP
Method: as §1

Cath B = biological target: T3, Cath B (Homo sapiens, UniProt P07858); test: FRET hydrolysis of substrate e by Cath B; conditions: 90 minutes, pH 6.5
T3 construct: purchased Calbiochem, EMD Bioscience (Gibbstown, N.J.)
Method: as §1

Cath D [2] = biological target: T4, Cath D (Homo sapiens, UniProt P07339); test: Enzyme digestion, fragments by RP-HPLC and ESI-MS (Cath D); conditions: high dose of Cath D, overnight hydrolysis
Method: Substrate e was subjected to aspartic peptidase digestion using Cath E and Cath D. […] The resulting digestion fragments were analyzed by the aforementioned analytical RP-HPLC and ESI-MS.

Cath E [3] = biological target: T2, Cath E; test: Enzyme digestion, fragments by RP-HPLC and ESI-MS (Cath E); design: purchased Calbiochem, EMD Bioscience (Gibbstown, N.J.); conditions: excess Cath E, 37° C., 3 hours
Method: Substrate e was subjected to aspartic peptidase digestion using Cath E and Cath D. Fluorogenic substrate e (10 μL, 100 μM) was incubated at 37° C. for 3 hours with excess Cath E or Cath D (˜119 pmol) in 100 μL, of 50 mM sodium acetate buffer (pH 4) containing 150 mM NaCl. The resulting digestion fragments were analyzed by the aforementioned analytical RP-HPLC and ESI-MS.

Cath E [4] = biological target: T2, Cath E; test: Reported specificity constants of Cath E for various substrates; design: purchased Calbiochem, EMD Bioscience (Gibbstown, N.J.); conditions: sequence 3 vs sequence 2
Text: Table 4 compiles the reported specificity constant (Kcat/Km) of Cath E and Cath D using various substrates including peptide substrate e. […] The specificity constant of Cath E for substrate e represents one of the highest reported Kcat/Km values.

Cath D [5] = biological target: T4, Cath D; test: FRET hydrolysis of quenched substrates a-e by Cath D; conditions: compared among substrates a-e
Method: as §1

[6] = substrate: COc1ccc2c(CC(=O)N[C@@H](C)C(=O)NCC(=O)N[C@@H](Cc3ccccc3)C(=O)N[C@@H](CO)C(=O)N[C@@H](CC(C)C)C(=O)N3CCC[C@H]3C(=O)N[C@@H](C)C(=O)N[C@@H](CCCCNc3ccc([N+](=O)[O-])cc3[N+](=O)[O-])C(=O)N[C@H](CCCNC(=N)N)C(N)=O)cc(=O)oc2c1; test: Kinetic parameters of substrate e hydrolysis by Cath E; conditions: other: Cath E 6.8 nM, pH 4.0, 10 minutes, 37° C., Woolf transformation
Method: The initial rates of substrate e hydrolysis by Cath E were monitored using a fluorescence plate-reader. Hydrolysis of different substrate e concentrations, 10, 20, 40 and 60 μM, was performed at pH 4 in 50 mM sodium acetate buffer containing 150 mM NaCl. Cath E with various concentrations, 2.27, 4.55, 6.82 nM, were incubated with substrate e and the changes in the fluorescence intensities were monitored for 10 minutes. The substrate e hydrolysis was determined by integrating the fluorescence intensity, and plotted by the amount of the hydrolyzed substrate e over time.
The initial velocities of the hydrolysis reactions were measured between 0 and 10 minutes using several concentrations of substrate e including: 5, 10, 20, 40, 60, 80, 100 μM. All of the used substrate e concentrations were much higher than the concentrations of enzyme (2.3, 4.5 and 6.8 nM). To measure the initial rates of the substrate e proteolysis and to determine Michaelis-Menten kinetic parameters Vmax and Km of the Cath E and Cath D, the Michaelis-Menten equation was transformed using the Woolf kinetic transformation [S/v=(S/Vmax)+(Km/Vmax)]. The initial velocity was calculated from the slope during the linear phase of the reaction and S/Vplotted versus substrate e concentration. The graph representation gave straight lines and Vmax and Km were calculated by the linear regression of the line to obtain the slope and intercept. The turnover number of Cath E enzyme (Kcat) was calculated using the equation Kcat=Vmax/[Cath E], where [Cath E] represents the Cath E concentration in μM and Vmax is the maximum velocity in μM S-1. All the reactions and measurements were carried out in 50 mM sodium acetate buffers (pH 4.0) using the aforementioned setting.

T4 sequence (P07339 65-412): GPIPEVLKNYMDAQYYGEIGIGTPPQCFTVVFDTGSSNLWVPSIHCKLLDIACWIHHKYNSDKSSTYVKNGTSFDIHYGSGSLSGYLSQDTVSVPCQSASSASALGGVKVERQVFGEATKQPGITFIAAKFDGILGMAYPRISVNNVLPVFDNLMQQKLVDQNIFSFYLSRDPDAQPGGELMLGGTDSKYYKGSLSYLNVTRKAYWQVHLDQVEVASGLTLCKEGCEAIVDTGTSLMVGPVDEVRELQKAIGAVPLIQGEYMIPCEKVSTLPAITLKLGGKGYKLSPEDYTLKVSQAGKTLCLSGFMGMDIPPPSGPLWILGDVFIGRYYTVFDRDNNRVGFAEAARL
T1 sequence (P25774 115-331): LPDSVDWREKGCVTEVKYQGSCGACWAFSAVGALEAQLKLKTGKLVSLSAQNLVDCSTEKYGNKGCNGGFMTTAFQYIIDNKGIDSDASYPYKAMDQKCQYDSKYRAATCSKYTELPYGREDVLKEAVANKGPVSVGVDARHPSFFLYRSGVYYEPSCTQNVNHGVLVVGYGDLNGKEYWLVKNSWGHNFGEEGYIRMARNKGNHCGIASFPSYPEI

COc1ccc2c(CC(=O)N[C@@H](C)C(=O)NCC(=O)N[C@@H](Cc3ccccc3)C(=O)N[C@@H](CO)C(=O)N[C@@H](CC(C)C)C(=O)N3CCC[C@H]3C(=O)N[C@@H](C)C(=O)N[C@@H](CCCCNc3ccc([N+](=O)[O-])cc3[N+](=O)[O-])C(=O)N[C@H](CCCNC(=N)N)C(N)=O)cc(=O)oc2c1 [Substrate e, Mca-Ala-Gly-Phe-Ser-Leu**Pro-Ala-Lys(Dnp)-DArg-CONH2] (Mca-AGFSLPAK(Dnp)[dR]-NH2) was tested, and the “fluorescent signal increase relative to that observed with Cath E” value (Cath S) was “less than 15%”, the “time to saturation of fluorescence on activation by Cath E” value (Cath E [1]; 200 μM substrate, pH 4.0) was ≤ 10 min and the “net fluorescence signal ratio (Cath E/Cath D)” value (Cath E [1]; 1 minute / initial time point, 200 μM substrate, 23 pmol enzyme, pH 4.0) was 265 fold. For the same molecule, the “fluorescent signal increase relative to that observed with Cath E” value (Cath B) was “less than 15%”, the cleavage sites (Cath D [2]) was “two minor cleavage sites” and the cleavage site (Cath E [3]) was “exclusively between Leu^5 and Pro^6”.

In the case of “Mca-Ala-Gly-Phe-Ser-Leu**Gly-Pro-Lys(Dnp)-DArg-CONH2 (Mca-AGFSLGPK(Dnp)[dR]-NH2; SMILES COc1ccc2c(CC(=O)N[C@@H](C)C(=O)NCC(=O)N[C@@H](Cc3ccccc3)C(=O)N[C@@H](CO)C(=O)N[C@@H](CC(C)C)C(=O)NCC(=O)N3CCC[C@H]3C(=O)N[C@@H](CCCCNc3ccc([N+](=O)[O-])cc3[N+](=O)[O-])C(=O)N[C@H](CCCNC(=N)N)C(N)=O)cc(=O)oc2c1) [Substrate d]”, the “time to saturation of fluorescence on activation by Cath E” value (Cath E [1]; 200 μM substrate, pH 4.0) is reported as “did not reach saturation within the monitored period”.

In the case of “Mca-Gly-Ser-Pro-Ala-Phe**Leu-Ala-Lys(Dnp)-DArg-CONH2 (Mca-GSPAFLAK(Dnp)[dR]-NH2; SMILES COc1ccc2c(CC(=O)NCC(=O)N[C@@H](CO)C(=O)N3CCC[C@H]3C(=O)N[C@@H](C)C(=O)N[C@@H](Cc3ccccc3)C(=O)N[C@@H](CC(C)C)C(=O)N[C@@H](C)C(=O)N[C@@H](CCCCNc3ccc([N+](=O)[O-])cc3[N+](=O)[O-])C(=O)N[C@H](CCCNC(=N)N)C(N)=O)cc(=O)oc2c1) [Substrate a]”, the “fluorescence increase upon incubation with Cath E” value (Cath E [1]; compared among substrates a-e) is reported as “the fastest increase and the highest fluorescence signal among all investigated substrates”, the “Kcat/Km for Cath E relative to sequence 2” value (Cath E [4]) is reported as “around 16 fold” and the “fluorescence increase / hydrolysis upon incubation with Cath D” value (Cath D [5]) is reported as “the highest among all investigated substrates”.

B1: Cath E (Homo sapiens) (protein)
chain: T2 sequence (P14091 54-396)
notes: purchased Calbiochem, EMD Bioscience (Gibbstown, N.J.)
In the case of B1, the Km [6] is reported as 19.37 µM, the Vmax [6] is reported as 2.2 μM S^−1 and the kcat [6] is reported as 322.5 S^−1. The kcat/Km [6] was 16.7 μM^−1 S^−1.
